Source: US20240156864A1 (UNIVERSITY OF NORTH CAROLINA AT CHAPEL HILL, published 2024)

B1: PIK3CD (enzyme)
chain: MPPGVDCPMEFWTKEENQSVVVDFLLPTGVYLNFPVSRNANLSTIKQLLWHRAQYEPLFHMLSGPEAYVFTCINQTAEQQELEDEQRRLCDVQPFLPVLRLVAREGDRVKKLINSQISLLIGKGLHEFDSLCDPEVNDFRAKMCQFCEEAAARRQQLGWEAWLQYSFPLQLEPSAQTWGPGTLRLPNRALLVNVKFEGSEESFTFQVSTKDVPLALMACALRKKATVFRQPLVEQPEDYTLQVNGRHEYLYGSYPLCQFQYICSCLHSGLTPHLTMVHSSSILAMRDEQSNPAPQVQKPRAKPPPIPAKKPSSVSLWSLEQPFRIELIQGSKVNADERMKLVVQAGLFHGNEMLCKTVSSSEVSVCSEPVWKQRLEFDINICDLPRMARLCFALYAVIEKAKKARSTKKKSKKADCPIAWANLMLFDYKDQLKTGERCLYMWPSVPDEKGELLNPTGTVRSNPNTDSAAALLICLPEVAPHPVYYPALEKILELGRHSECVHVTEEEQLQLREILERRGSGELYEHEKDLVWKLRHEVQEHFPEALARLLLVTKWNKHEDVAQMLYLLCSWPELPVLSALELLDFSFPDCHVGSFAIKSLRKLTDDELFQYLLQLVQVLKYESYLDCELTKFLLDRALANRKIGHFLFWHLRSEMHVPSVALRFGLILEAYCRGSTHHMKVLMKQGEALSKLKALNDFVKLSSQKTPKPQTKELMHLCMRQEAYLEALSHLQSPLDPSTLLAEVCVEQCTFMDSKMKPLWIMYSNEEAGSGGSVGIIFKNGDDLRQDMLTLQMIQLMDVLWKQEGLDLRMTPYGCLPTGDRTGLIEVVLRSDTIANIQLNKSNMAATAAFNKDALLNWLKSKNPGEALDRAIEEFTLSCAGYCVATYVLGIGDRHSDNIMIRESGQLFHIDFGHFLGNFKTKFGINRERVPFILTYDFVHVIQQGKTNNSEKFERFRGYCERAYTILRRHGLLFLHLFALMRAAGLPELSCSKDIQYLKDSLALGKTEEEALKHFRVKFNEALRESWKTKVNWLAHNVSKDNRQ
notes: Endogenous protein from T cell lysate
B2: CD8α (receptor)
chain: not shown
notes: Endogenous protein from T cell lysate; The CARs themselves carry a CD8α stalk; the text says that unique peptides outside the stalk were detected; also called CD8A; CD8 co-receptor
B3: TRAF1 (other)
chain: MASSSGSSPRPAPDENEFPFGCPPTVCQDPKEPRALCCAGCLSENPRNGEDQICPKCRGEDLQSISPGSRLRTQEKAHPEVAEAGIGCPFAGVGCSFKGSPQSVQEHEVTSQTSHLNLLLGFMKQWKARLGCGLESGPMALEQNLSDLQLQAAVEVAGDLEVDCYRAPCSESQEELALQHFMKEKLLAELEGKLRVFENIVAVLNKEVEASHLALATSIHQSQLDRERILSLEQRVVELQQTLAQKDQALGKLEQSLRLMEEASFDGTFLWKITNVTRRCHESACGRTVSLFSPAFYTAKYGYKLCLRLYLNGDGTGKRTHLSLFIVIMRGEYDALLPWPFRNKVTFMLLDQNNREHAIDAFRPDLSSASFQRPQSETNVASGCPLFFPLSKLQSPKHAYVKDDTMFLKCIVETST
notes: as for B1
B4: TRAF2 (other)
chain: AAASVTPPGSLELLQPGFSKTLLGTKLEAKYLCSACRNVLRRPFQAQCGHRYCSFCLASILSSGPQNCAACVHEGIYEEGISILESSSAFPDNAARREVESLPAVCPSDGCTWKGTLKEYESCHEGRCPLMLTECPACKGLVRLGEKERHLEHECPERSLSCRHCRAPCCGADVKAHHEVCPKFPLTCDGCGKKKIPREKFQDHVKTCGKCRVPCRFHAIGCLETVEGEKQQEHEVQWLREHLAMLLSSVLEAKPLLGDQSHAGSELLQRCESLEKKTATFENIVCVLNREVERVAMTAEACSRQHRLDQDKIEALSSKVQQLERSIGLKDLAMADLEQKVLEMEASTYDGVFIWKISDFARKRQEAVAGRIPAIFSPAFYTSRYGYKMCLRIYLNGDGTGRGTHLSLFFVVMKGPNDALLRWPFNQKVTLMLLDQNNREHVIDAFRPDVTSSSFQRPVNDMNIASGCPLFCPVSKMEAKNSYVRDDAIFIKAIVDLTGL
notes: as for B1
B5: THEMIS (other)
chain: MALSLEEFVHSLDLRTLPRVLEIQAGIYLEGSIYEMFGNECCFSTGEVIKITGLKVKKIIAEICEQIEGCESLQPFELPMNFPGLFKIVADKTPYLTMEEITRTIHIGPSRLGHPCFYHQKDIKLENLIIKQGEQIMLNSVEEIDGEIMVSCAVARNHQTHSFNLPLSQEGEFYECEDERIYTLKEIVEWKIPKNRTRTVNLTDFSNKWDSTNPFPKDFYGTLILKPVYEIQGVMKFRKDIIRILPSLDVEVKDITDSYDANWFLQLLSTEDLFEMTSKEFPIVTEVIEAPEGNHLPQSILQPGKTIVIHKKYQASRILASEIRSNFPKRHFLIPTSYKGKFKRRPREFPTAYDLEIAKSEKEPLHVVATKAFHSPHDKLSSVSVGDQFLVHQSETTEVLCEGIKKVVNVLACEKILKKSYEAALLPLYMEGGFVEVIHDKKQYPISELCKQFRLPFNVKVSVRDLSIEEDVLAATPGLQLEEDITDSYLLISDFANPTECWEIPVGRLNMTVQLVSNFSRDAEPFLVRTLVEEITEEQYYMMRRYESSASHPPPRPPKHPSVEETKLTLLTLAEERTVDLPKSPKRHHVDITKKLHPNQAGLDSKVLIGSQNDLVDEEKERSNRGATAIAETFKNEKHQK
notes: Endogenous protein from T cell lysate (Co-IP-MS); also called endogenous THEMIS; TEHMIS [sic]
B6: CAR19.28ζ (receptor)
chain: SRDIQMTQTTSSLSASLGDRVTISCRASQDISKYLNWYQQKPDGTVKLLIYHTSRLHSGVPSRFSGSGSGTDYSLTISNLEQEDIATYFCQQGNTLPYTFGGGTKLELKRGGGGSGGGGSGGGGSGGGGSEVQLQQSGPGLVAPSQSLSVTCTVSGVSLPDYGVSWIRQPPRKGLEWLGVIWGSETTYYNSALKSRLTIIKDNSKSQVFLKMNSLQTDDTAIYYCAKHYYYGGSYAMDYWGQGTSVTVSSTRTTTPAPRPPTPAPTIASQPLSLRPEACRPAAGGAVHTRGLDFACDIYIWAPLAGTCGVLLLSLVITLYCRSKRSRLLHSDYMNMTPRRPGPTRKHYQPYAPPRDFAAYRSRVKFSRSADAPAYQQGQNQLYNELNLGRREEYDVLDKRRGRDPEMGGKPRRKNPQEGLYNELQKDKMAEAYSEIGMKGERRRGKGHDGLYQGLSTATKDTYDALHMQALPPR
notes: Expressed in human T cells and pulled down from lysate with the anti-CAR19 Ab; also called CAR.28ζ; CAR19.CD28ζ

The binders below were run against T1, CAR19.BBζ (human, UniProt P01732 138-206; Q07011 214-255; P20963 52-164) (assay: co-IP with anti-CAR19 Ab from CAR-T cell lysate, LC-MS/MS).
T1 construct: Expressed in human T cells (or Jurkat cells) and pulled down from lysate; also called CAR.BBζ; CAR19.BBC
Description: (§1) For Immunoprecipitation (IP), assay, proteins from T cells were extracted in RIPA lysis buffer (Thermo Scientific) supplemented with 1×protease/phosphatase Inhibitors (Thermo Scientific). Equal amount of total proteins was used for IP. Rabbit/mouse IgG (Thermo Scientific) with protein G magnetic beads (Bio-Rad) was used to pre-clear the lysate and anti-CAR19, anti-HA or anti-FLAG Abs were incubated with lysate for 16 hours, and protein G beads were then used for the pull-down. IP products were dissolved in 2× SDS Laemmli buffer for Western blot analysis. […] 2× SDS Laemmli buffer without β-mercaptoethanol was used to dissolve the IP product, and β-mercaptoethanol was supplemented before western blot.
For mass spectrometry (MS) assays, immunoprecipitated samples (3 biological replicates) were subjected to SDS-PAGE and stained with Coomassie blue dye. Lanes for each sample were excised and the proteins were reduced, alkylated, and in-gel digested with trypsin overnight at 37° C. Peptides were extracted, desalted with C18 spin columns (Pierce) and dried via vacuum centrifugation. Peptide samples were stored at −80° C. until further analysis. The peptide samples were analyzed by liquid chromatography coupled to tandem mass spectrometry (LC-MS/MS) in 3 separated experiments using a Thermo Easy nLC 1000 coupled to a QExactive HF or a Waters nanoAcquity coupled to a Thermo LTQ-Orbitrap Velos. Samples were injected onto a PepMap C18 column (75 μm id×25 cm, 2 μm particle size) (Thermo Scientific) and separated over a 90 or 120 min gradient where mobile phase A was 0.1% formic acid in water and mobile phase B consisted of 0.1% formic acid in ACN. The LTQ-Orbitrap Velos was operated in data-dependent mode where the 10 most abundant precursors were selected for CID fragmentation (35% CE). The QExactive HF was operated in data-dependent mode where the 15 most intense precursors were selected for subsequent HCD fragmentation (27 NCE).

T1 sequence (P20963 other isoform, or with tags, fused parts or gaps): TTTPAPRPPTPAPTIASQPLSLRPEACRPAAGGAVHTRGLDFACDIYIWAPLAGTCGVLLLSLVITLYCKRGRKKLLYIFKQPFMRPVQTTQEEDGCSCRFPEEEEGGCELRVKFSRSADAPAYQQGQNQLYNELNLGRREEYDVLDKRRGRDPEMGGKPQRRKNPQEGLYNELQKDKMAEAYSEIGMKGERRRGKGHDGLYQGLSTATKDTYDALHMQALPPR

| Binder | Area | Coverage [%] | Peptides (number identified) |
| --- | --- | --- | --- |
| B1 | 5.1e+06 | 2 | 2 |
| B2 | 7.34e+08 | 32 | 6 |
| B3 | 2.31e+08 | 15 | 4 |
| B4 | 5.52e+07 | 14 | 6 |
| B5 | 3.78e+07 | 4 | 2 |

Each binder was assayed against T2, CD4 co-receptor (human, UniProt P01730 26-458) (assay: co-IP with anti-CAR19 Ab, LC-MS/MS).
T2 construct: Endogenous protein from T cell lysate

| Binder | binding result |
| --- | --- |
| B6 | no binding |

These binders were tested against B3 (assay: co-IP with anti-CAR19 Ab, LC-MS/MS; 'Values not identified are denoted by -').
Description: as §1
(§2) For mass spectrometry (MS) assays, immunoprecipitated samples (3 biological replicates) were subjected to SDS-PAGE and stained with Coomassie blue dye. Lanes for each sample were excised and the proteins were reduced, alkylated, and in-gel digested with trypsin overnight at 37° C. Peptides were extracted, desalted with C18 spin columns (Pierce) and dried via vacuum centrifugation. Peptide samples were stored at −80° C. until further analysis. The peptide samples were analyzed by liquid chromatography coupled to tandem mass spectrometry (LC-MS/MS) in 3 separated experiments using a Thermo Easy nLC 1000 coupled to a QExactive HF or a Waters nanoAcquity coupled to a Thermo LTQ-Orbitrap Velos. […]

| Binder | binding result |
| --- | --- |
| B6 | no binding |

What follows are binders tested against B4 in the same assay as above.
Description: as §1, §2

| Binder | binding result |
| --- | --- |
| B6 | no binding |
